Patent publication US20260216362A1, “ANTI-BDCA2 ANTIBODY-DRUG CONJUGATE AND USE THEREOF” (DUALITY BIOLOGICS (SHANGHAI) CO., LTD., priority 2022, published 2026)
Numbering of substitutions follows the chain as printed.

T1: human BDCA2 expressed on CHOK1 cells (human, UniProt Q8WTT0 1-213)
T1 construct: whole, on cells; also called CHOK1-hBDCA2; CHOK1-humanBDCA2
T1 sequence (looked up): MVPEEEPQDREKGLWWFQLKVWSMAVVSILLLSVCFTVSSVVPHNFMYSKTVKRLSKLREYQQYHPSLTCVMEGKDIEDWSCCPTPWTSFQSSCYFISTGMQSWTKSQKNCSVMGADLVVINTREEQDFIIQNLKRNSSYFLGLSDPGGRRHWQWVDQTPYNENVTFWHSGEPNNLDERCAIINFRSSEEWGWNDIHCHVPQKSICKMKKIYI

T2: Human BDCA2 Fc recombinant protein (human, UniProt Q8WTT0 45-213)
T2 construct: also called HumanBDCA2 Fc protein; not shown: The N-terminal human IgG1 Fc fragment and the linker
T2 sequence: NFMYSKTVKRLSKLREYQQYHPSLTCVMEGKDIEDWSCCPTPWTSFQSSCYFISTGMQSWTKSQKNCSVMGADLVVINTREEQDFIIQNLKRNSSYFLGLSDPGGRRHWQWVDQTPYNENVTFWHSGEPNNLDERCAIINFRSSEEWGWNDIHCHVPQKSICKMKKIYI

T3: cynomolgus monkey BDCA2 expressed on 293F cells (cynomolgus monkey, UniProt A0A2K5UWP4 1-212)
T3 construct: whole, on cells
T3 sequence: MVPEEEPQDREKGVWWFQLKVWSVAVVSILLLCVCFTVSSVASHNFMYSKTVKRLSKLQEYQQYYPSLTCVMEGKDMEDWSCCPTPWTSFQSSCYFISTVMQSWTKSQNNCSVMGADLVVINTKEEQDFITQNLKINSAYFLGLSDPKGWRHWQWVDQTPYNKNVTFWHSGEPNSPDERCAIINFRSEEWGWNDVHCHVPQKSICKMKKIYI

B1: mAb021 (antibody)
chain 1: DVQLQESGPGLVKPSQSLSLTCSVTGYSITSAYYWNWIRQFPGNKLECMGYITYDGNNYYSPSLKNRISITRDTSKNQFFLNLNSVTTEDTATYFCARGGDYDDGGFAFWGQGTLVTVSA
chain 2: DIQMTQSPASLSASVGETVTITCRASGNIHNYLAWYHQKQGKSPQLLVYNAKSLVDGVPSRFSGSGSGTQYSLRINSLQPEDFGSYYCQHFWIVPYTFGGGTKLEII
B2: mAb027 (antibody)
chain 1: B1 chain 1 with I38V, K45Q, N57S, Y59N, S61N, N82K, F95Y, A97V, F109Y
chain 2: B1 chain 2 with H37Q, S53T, Q70E, R74K, S85I, Y87F, V94I, I107R
B3: mAb030 (antibody)
chain 1: B1 chain 1 with T53S, N57S, S61N, N82S, A97V, F109Y
chain 2: B1 chain 2 with H37Q, S53T, V55A, G68E, R74K, S85N, Y87F, V94I, I107K
B4: mAb001 (antibody)
chain 1: QIQLVQSGPELKKPGETVKISCKASGYTFTDFSMHWVKQAPGKGLKWMGWINTETGEPTYADDFKGRFAFSLETSASTAFLQINNLKNDDTTTYFCSRGGDGHPYWYFAVWGAGTTVTVSS
chain 2: DIVLTQSPASLAVSLGQRATISCRASQSVSTSSYSYMHWYQQKPGQPPKLLIKYASILESGVPARFSGSGSGTDFTLNIHPVEEEDTATYYCQHSWEIPFTFGSGTKLEIK
B5: mAb002 (antibody)
chain 1: QIQLVQSGPELKKPGETVKISCRASGYSFTDYSMHWVKQAPGKGLKWVGWINTETGEPTYADDFKGRFALSLETSATSAYLQINNLKNEDTATYFCARGGDGFPYWYFNVWGAGTTVTVSS
chain 2: B4 chain 2 with A9T, A19T, T20N, Y34N, M37I, I57N, E59D, A88S
B6: mAb005 (antibody)
chain 1: QVQLKQSGPGLVQPSQSLSITCTVSGFSLTNYGVHWVRQSPGKGLEWLGVIWSGESTDYDAAFISRLSISKDNSKSQVFFKMNSLQADDSAIYYCARRRSHYYGYVMDYWGQGTSVTVSS
chain 2: DIVLTQSPASLAVSLGQRATISCKASQSIDYDGIGYLNWYQHKPGQPPKLLIYAASNLESGIPARFSGSGSGTDFTLNIHPVEEEDAATYYCQQSNEDPPTFGSGTKLEIK
B7: mAb016 (antibody)
chain 1: B6 chain 1 with N31S, K81R
chain 2: B6 chain 2 with I29V, I34V
B8: Hu033-03 (antibody, human IgG1, kappa, V domains shown)
VH: EVQLVESGGGLVKPGGSLRLSCAASGFTFSSYGMSWVRQAPGKGLEWVSTISSGDSYTYYPDSVKGRFTISRDNAKNSLYLQMNSLRAEDTAVYYCARQIYYDYAYYFDFWGQGTTVTVSS
VL: DIVLTQSPASLAVSPGQRATITCRASESVSFRTSHLMHWYQQKPGQPPKLLIYGASNLESGVPARFSGSGSETDFTLTINPVEAEDTANYFCQQSIEDPPTFGGGTKVEIKR
notes: Humanized IgG1; also called Hu033-03(BM3)
B9: Hu033-03-ADC (antibody, human IgG1, kappa, V domains shown)
VH: B8 VH
VL: B8 VL
modifications: Compound 9 (glucocorticoid linker-payload) coupled to cysteine sulfhydryls after TCEP reduction, positions not given; average 4.01 per antibody by HIC
notes: also called Hu033-03 antibody-drug conjugate; BDCA2-ADC
B10: mAb020 (antibody)
chain 1: DVQLQESGPGLVKPSQSLSLTCSVTGYSIASGYYWNWIRQFPGNKLEWMGYISFDGTYNYNPSLKDRFSITRDTSKNQFFLKLNSVTTEDTATYYCARGVDYPNAIDWWGQGTSVTVSS
chain 2: DIVLTQSPASLAVSLGQRATISCRASESVSMHVTHLIHWYQQKPGQPPKLLIYVASNLESGVPARFSGSGSETDFTLNIHPVEEEDAATYFCQQSFEDPWTFGGGTKLEIK
B11: mAb024 (antibody)
chain 1: EVQLVESGGDLVKPGGSLKLSCAASGFTFSSFGMSWVRQTPDKRLDWVATISSGDSYTYYPDSVKGRFSISRDNAKNTLYLQMSSLKSEDTAVYYCARQIYYDYAYYFDYWGQGTTLTVSS
chain 2: B10 chain 2 with M31F, H32R, V33S, T34S, I37M, Q41R, V54A, T89A, F96I, W100P
B12: mAb022 (antibody)
chain 1: B10 chain 1 with A30T, N104K, I106M
chain 2: B10 chain 2
B13: BIIB059 (antibody, human IgG1, kappa, V domains shown)
VH: DVQLVESGGGLVKPGGSLRLSCAASGFTFSTYTMSWVRQAPGKGLEWVATISPGDSFGYYYPDSVQGRFTISRDNAKNSLYLQMNSLRAEDTAVYYCTRDIYYNYGAWFAYWGQGTLVTVSS
VL: DIQLTQSPSSLSASVGDRVTITCKASQSVDYDGDSYMNWYQQKPGKAPKLLIYAASTLESGVPSRFSGSGSGTDFTLTISSLQPEDFATYYCQQANEDPRTFGQGTKVEIKR
notes: also called positive control antibody BIIB059
B14: mAb019 (antibody)
chain 1: EVKLVESGGDLVQPGGSLKLSCAASGFTFSDYYMYWVRQTPEKRLEWVAYISYSGDSTYYPDTVKGRFTISRDNAKNTLFLQMSRLKSEDTAMYYCARHSPSFPYYFDYWGQGTALTVSS
chain 2: EIVLTQSPAITAASLGQKVTITCSASSSVSYMHWYQQKSGTSPKPWIYEISKLASGVPARFSGSGSGTSYSLTISSMEAEDAAIYYCQLWNYPLITFGGGTNLEIK

Columns and labels:
[1] = target: cynomolgus monkey BDCA2 expressed on 293F cells (cynomolgus monkey); experiment: FACS on 293F-cynoBDCA2 cells, MFI vs concentration; EC50 from the drawn table (fit of a flat control curve)
[2] = target: T1, human BDCA2 expressed on CHOK1 cells; experiment: FACS on CHOK1-hBDCA2 cells, MFI vs concentration; EC50 from the drawn table (fit of a flat control curve)
[3] = target: T2, Human BDCA2 Fc recombinant protein; experiment: ELISA, coated humanBDCA2 Fc
[4] = target: T3, cynomolgus monkey BDCA2 expressed on …; experiment: FACS on 293F-cynoBDCA2 cells
Description: (§1) The cells were collected and resuspended to 2×10\hat{ }6 cells/mL in an FACS buffer (PBS+2% FBS). The resuspended cells were added to a 3799 cell plate at 100 μL/well and centrifuged at 300 g, and the supernatant was discarded. […] The cells were resuspended and incubated at 4° C. for 1 h. The incubated cells were centrifuged at 300 g for 5 min and washed twice with the FACS buffer. 100 μL of Goat anti-Human IgG (H+L) Cross-Adsorbed Secondary Antibody, Alexa Fluor 488 (Sigma, A11013; 1:1000) secondary antibody was added. The cells were incubated at 4° C. for 1 h, washed twice with the FACS buffer, and resuspended in PBS. The fluorescence signals of the antibodies for binding to the cell surface were analyzed using an FACS (BD FACS Canto™ II) instrument, curves were fitted using GraphPad Prism6, and EC50 values of the antibodies or antibody-drug conjugates for binding to the BDCA2 antigen were calculated.

[5] = target: T1, human BDCA2 expressed on CHOK1 cells; experiment: FACS on CHOK1-hBDCA2 cells
Description: as §1

Molecule	EC50 [3]	further results
hIgG1 (antibody)	–	EC50 [1]: 584 nM; EC50 [2]: 160000 nM
B1	< 0.3 nM	–
B2	< 0.3 nM	–
B3	< 0.3 nM	–
B4	< 0.3 nM	–
B5	< 0.3 nM	–
B6	< 0.3 nM	–
B7	< 0.3 nM	–
B8	–	EC50 [4]: 1.91 nM; EC50 [5]: 1.23 nM
B9	–	EC50 [4]: 2.36 nM; EC50 [5]: 1.6 nM
B10	< 0.3 nM	–
B11	< 0.3 nM	–
B12	< 0.3 nM	–
B13	–	EC50 [5]: 3.29 nM
B14	< 0.3 nM	–
